Data as given in PMC5379037.

Biological target: GST-CaWRKYa (Capsicum annuum, UniProt Q1XD53 1-546)
Assay: EMSA; 5 ug protein; EMSA: 4 C, 30 min, 5% native polyacrylamide gel in 0.5x TBE; 5 ug protein (0.5 ug in Fig. S5b); binding buffer, salt and pH not stated

GST-CaWRKYa, sequence (Q1XD53 entry or part of it): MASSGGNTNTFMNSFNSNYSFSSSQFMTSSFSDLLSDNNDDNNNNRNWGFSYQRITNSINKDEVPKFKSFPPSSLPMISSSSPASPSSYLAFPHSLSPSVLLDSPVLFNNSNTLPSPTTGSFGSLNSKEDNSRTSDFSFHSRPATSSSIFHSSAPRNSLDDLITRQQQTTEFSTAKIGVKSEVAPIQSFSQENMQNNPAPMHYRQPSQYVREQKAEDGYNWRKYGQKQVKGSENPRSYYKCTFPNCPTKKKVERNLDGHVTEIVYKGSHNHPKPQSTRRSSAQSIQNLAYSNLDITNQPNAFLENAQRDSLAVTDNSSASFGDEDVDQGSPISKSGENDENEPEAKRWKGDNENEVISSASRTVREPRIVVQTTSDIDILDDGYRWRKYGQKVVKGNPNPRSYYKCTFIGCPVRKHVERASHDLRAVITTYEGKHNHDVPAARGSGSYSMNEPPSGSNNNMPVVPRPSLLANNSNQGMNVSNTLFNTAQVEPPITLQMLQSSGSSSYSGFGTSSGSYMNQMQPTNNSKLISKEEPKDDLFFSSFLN

Binder	binding result
W-box probe (dsDNA) DNA 1: CGTTGACCGTTGACCGAGTTGACTTTTTA DNA 2: TAAAAAGTCAACTCGGTCAACGGTCAACG	binds
mW-box probe (dsDNA) DNA 1: CGTAGACGGTAGACGGAGTAGACGTTTTA DNA 2: TAAAACGTCTACTCCGTCTACCGTCTACG	no binding
